From patent US20250368745A1 (published 2025)
Where a chain is given by its changes, count along the chain named. Names and notes keep the numbering of the source. Like-named read-outs stand apart in the source and are kept apart here.

T1: human IL-18BP (human, UniProt O95998 31-194)
T1 construct: UniProt printed as 095998; also called hIL-18BP
T1 sequence: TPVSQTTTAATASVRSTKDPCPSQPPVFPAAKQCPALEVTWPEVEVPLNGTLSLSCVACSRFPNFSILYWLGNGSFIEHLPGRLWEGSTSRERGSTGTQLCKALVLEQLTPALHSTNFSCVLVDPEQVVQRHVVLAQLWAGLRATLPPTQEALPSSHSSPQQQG

B1: SA301a HC-G55A (antibody, name in Kabat numbering, V domains shown)
VH: QVQLQESGPGLVKPSQTLSLTCTVSGYSITSDYNSHWIRQPPGKGLEWIGYIHYSASTNYNPSLKSRVTISRDTSKNQFSLKLSSVTAADTAVYYCARNYGSIYVNYFDYWGQGTLVTVSS
VL: EIVLTQSPATLSLSPGERATLSCSASSSVSYMYWYQQKPGQAPRPLIYRTSNLASGIPARFSGSGSGTDFTLTISSLEPEDFAVYYCQQYHSYPTFGGGTKVEIK
notes: IgG1 kappa
B2: SA301a LC-T96A (antibody, V domains shown)
VH: B1 VH with A56G
VL: B1 VL with T95A
B3: SA301a LC-Y94N (antibody, V domains shown)
VH: B1 VH with A56G
VL: B1 VL with Y93N
B4: SA301a LC-Y94V (antibody, V domains shown)
VH: B1 VH with A56G
VL: B1 VL with Y93V
B5: SA301a LC-P95L (antibody, V domains shown)
VH: B1 VH with A56G
VL: B1 VL with P94L
B6: SA301a LC-S93I (antibody, V domains shown)
VH: B1 VH with A56G
VL: B1 VL with S92I
B7: SA301a LC-S93V (antibody, V domains shown)
VH: B1 VH with A56G
VL: B1 VL with S92V
B8: SA301a LC-S93M (antibody, V domains shown)
VH: B1 VH with A56G
VL: B1 VL with S92M
B9: SA301a LC-P95E (antibody, V domains shown)
VH: B1 VH with A56G
VL: B1 VL with P94E
B10: SA301a LC-Y94F (antibody, V domains shown)
VH: B1 VH with A56G
VL: B1 VL with Y93F
B11: SA301a LC-S93P (antibody, V domains shown)
VH: B1 VH with A56G
VL: B1 VL with S92P
B12: SA301a LC-S93G (antibody, V domains shown)
VH: B1 VH with A56G
VL: B1 VL with S92G
B13: SA301a LC-S93F (antibody, V domains shown)
VH: B1 VH with A56G
VL: B1 VL with S92F
B14: SA301a LC-T96V (antibody, V domains shown)
VH: B1 VH with A56G
VL: B1 VL with T95V
B15: SA301a LC-S93D (antibody, V domains shown)
VH: B1 VH with A56G
VL: B1 VL with S92D
B16: SA301a LC-T96I (antibody, V domains shown)
VH: B1 VH with A56G
VL: B1 VL with T95I
B17: SA301a LC-S93L (antibody, V domains shown)
VH: B1 VH with A56G
VL: B1 VL with S92L
B18: SA301a LC-Y94R (antibody, V domains shown)
VH: B1 VH with A56G
VL: B1 VL with Y93R
B19: SA301a LC-S93Y (antibody, V domains shown)
VH: B1 VH with A56G
VL: B1 VL with S92Y
B20: SA301a LC-T96Y (antibody, V domains shown)
VH: B1 VH with A56G
VL: B1 VL with T95Y
B21: SA301a LC-P95A (antibody, V domains shown)
VH: B1 VH with A56G
VL: B1 VL with P94A
B22: SA301a LC-Y94S (antibody, V domains shown)
VH: B1 VH with A56G
VL: B1 VL with Y93S
B23: SA301a LC-Y94L (antibody, V domains shown)
VH: B1 VH with A56G
VL: B1 VL with Y93L
B24: SA301a LC-P95N (antibody, V domains shown)
VH: B1 VH with A56G
VL: B1 VL with P94N
B25: SA301a LC-Y94A (antibody, V domains shown)
VH: B1 VH with A56G
VL: B1 VL with Y93A
B26: SA301a LC-T96M (antibody, V domains shown)
VH: B1 VH with A56G
VL: B1 VL with T95M
B27: SA301a LC-T96K (antibody, V domains shown)
VH: B1 VH with A56G
VL: B1 VL with T95K
B28: SA301a LC-S93K (antibody, V domains shown)
VH: B1 VH with A56G
VL: B1 VL with S92K
B29: SA301a LC-S93Q (antibody, V domains shown)
VH: B1 VH with A56G
VL: B1 VL with S92Q
B30: SA301a LC-Y94I (antibody, V domains shown)
VH: B1 VH with A56G
VL: B1 VL with Y93I
B31: SA301a LC-T96E (antibody, V domains shown)
VH: B1 VH with A56G
VL: B1 VL with T95E
B32: SA301a LC-T96P (antibody, V domains shown)
VH: B1 VH with A56G
VL: B1 VL with T95P
B33: SA301a LC-Y94M (antibody, V domains shown)
VH: B1 VH with A56G
VL: B1 VL with Y93M
B34: SA301a LC-Y94G (antibody, V domains shown)
VH: B1 VH with A56G
VL: B1 VL with Y93G
B35: SA301a LC-S93A (antibody, V domains shown)
VH: B1 VH with A56G
VL: B1 VL with S92A
B36: SA301a LC-P95F (antibody, V domains shown)
VH: B1 VH with A56G
VL: B1 VL with P94F
B37: SA301a LC-P95K (antibody, V domains shown)
VH: B1 VH with A56G
VL: B1 VL with P94K
B38: SA301a LC-P95Y (antibody, V domains shown)
VH: B1 VH with A56G
VL: B1 VL with P94Y
B39: SA301a LC-T96D (antibody, V domains shown)
VH: B1 VH with A56G
VL: B1 VL with T95D
B40: SA301a HC-G55Q (antibody, name in Kabat numbering, V domains shown)
VH: B1 VH with A56Q
VL: B1 VL
notes: IgG1 kappa
B41: SA301a HC-G55E (antibody, name in Kabat numbering, V domains shown)
VH: B1 VH with A56E
VL: B1 VL
notes: IgG1 kappa
B42: SA301a HC-G55F (antibody, name in Kabat numbering, V domains shown)
VH: B1 VH with A56F
VL: B1 VL
notes: IgG1 kappa
B43: SA301a HC-G55M (antibody, name in Kabat numbering, V domains shown)
VH: B1 VH with A56M
VL: B1 VL
notes: IgG1 kappa
B44: SA301a HC-G55H (antibody, name in Kabat numbering, V domains shown)
VH: B1 VH with A56H
VL: B1 VL
notes: IgG1 kappa
B45: SA301a HC-G55D (antibody, name in Kabat numbering, V domains shown)
VH: B1 VH with A56D
VL: B1 VL
notes: IgG1 kappa
B46: SA301a HC-G55K (antibody, name in Kabat numbering, V domains shown)
VH: B1 VH with A56K
VL: B1 VL
notes: IgG1 kappa
B47: SA301a HC-G55L (antibody, name in Kabat numbering, V domains shown)
VH: B1 VH with A56L
VL: B1 VL
notes: IgG1 kappa

Legend:
human IL-18BP [1] = target: T1, human IL-18BP; assay: BLI, apparent KD
human IL-18BP [2] = target: T1, human IL-18BP; assay: BLI, apparent KD; remark: listed apart in the source

| Binder | Kd (human IL-18BP [1]) [nM] | Kd (human IL-18BP [2]) [nM] |
| --- | --- | --- |
| B1 | 0.75 |  |
| B2 |  | 0.17 |
| B3 |  | 0.22 |
| B4 |  | 2.35 |
| B5 |  | 2.18 |
| B6 |  | 0.21 |
| B7 |  | 0.19 |
| B8 |  | 0.14 |
| B9 |  | 0.44 |
| B10 |  | 0.13 |
| B11 |  | 0.41 |
| B12 |  | 0.08 |
| B13 |  | 0.15 |
| B14 |  | 0.21 |
| B15 |  | 0.23 |
| B16 |  | 0.12 |
| B17 |  | 0.23 |
| B18 |  | 0.29 |
| B19 |  | 0.19 |
| B20 |  | 0.22 |
| B21 |  | 0.26 |
| B22 |  | 0.63 |
| B23 |  | 0.16 |
| B24 |  | 0.32 |

| Binder | Kd (human IL-18BP [1]) [nM] | Kd (human IL-18BP [2]) [nM] |
| --- | --- | --- |
| B25 |  | 1.15 |
| B26 |  | 0.19 |
| B27 |  | 0.05 |
| B28 |  | 0.16 |
| B29 |  | 0.24 |
| B30 |  | 1.27 |
| B31 |  | 0.31 |
| B32 |  | 0.26 |
| B33 |  | 1.93 |
| B34 |  | 0.12 |
| B35 |  | 0.52 |
| B36 |  | 2.01 |
| B37 |  | 0.22 |
| B38 |  | 0.82 |
| B39 |  | 0.13 |
| B40 | 0.79 |  |
| B41 | 0.4 |  |
| B42 | 1.17 |  |
| B43 | 0.84 |  |
| B44 | 1.31 |  |
| B45 | 1.37 |  |
| B46 | 1.04 |  |
| B47 | 1.72 |  |
